Columns and labels:
[1] = substrate: O=C(OCCO)c1ccc(C(=O)OCCO)cc1; assay: purified protein; assay type: biochemical, Bacillus subtilis; details: 50 mM potassium phosphate (Na2HPO4-NaH2PO4), pH 7.5, 30 °C, BHET 0.8-15 mM
[2] = substrate: O=C(OCCO)c1ccc(C(=O)OCCO)cc1; assay: purified protein; assay type: biochemical, Chryseobacterium sp. PET-29; details: 50 mM potassium phosphate (Na2HPO4-NaH2PO4), pH 7.5, 30 °C, BHET 0.8-15 mM

Row | Protein | Km [1] [µM] | kcat [1] [s⁻¹] | kcat/Km [1] [M⁻¹ s⁻¹] | Km [2] [µM] | kcat [2] [s⁻¹] | kcat/Km [2] [M⁻¹ s⁻¹]
1 | BsEst (Bacillus subtilis subsp. subtilis str. 168; DEL410-418/INS409GG) (protein, catalytic triad S189-E310-H399; L410-K418 barrier) MTHQIVTTQYGKVKGTTENGVHKWKGIPYAKPPVGQWRFKAPEPPEVWEDVLDATAYGSICPQPSDLLSLSYTELPRQSEDCLYVNVFAPDTPSKNLPVMVWIHGGAFYLGAGSEPLYDGSKLAAQGEVIVVTLNYRLGPFGFLHLSSFNEAYSDNLGLLDQAAALKWVRENISAFGGDPDNVTVFGESAGGMSIAALLAMPAAKGLFQKAIMESGASRTMTKEQAASTSAAFLQVLGINEGQLDKLHTVSAEDLLKAADQLRIAEKENIFQLFFQPALDPKTLPEEPEKAIAEGAASGIPLLIGTTRDEGYLFFTPDSDVHSQETLDAALEYLLGKPLAEKVADLYPRSLESQIHMMTDLLFWRPAVAYASAQSHYAPVWMYRFDWHPKKPPYNKAFHALELPFVFGNGGAEITDEVKQLSHTIQSAWITFAKTGNPSTEAVNWPAYHEETRETLILDSEITIENDPESEKRQKLFPSKGE | 80 ± 30 | 102 ± 5.18 | 1.35e+06 ± 334000 | – | – | –
2 | ChryBHETase (Chryseobacterium sp. PET-29) (protein, catalytic triad S194-E310-H379; V66-K76 barrier) MTTQQHKKIHTFHTSFGTIPALKGNGVIRAKSIRYARSQRFKKPEPLPYPEHDEIPDKTPVCPQNVSPLLDRLIQKTDVEQFEPDESPQFLTITRPEHFNENEKLPVIVWIHGGSYEIGCGDLPTSDPSVWVKEQHIIVVSVSYRLGLFGFLGGSEERPANLGLYDMIAALQWIKQYIRDFGGDPENITLFGQSSGGDAIAHLMISEETENLFRHVIIHSAPLGFRINRQKMSHEFFLKTDILKDEPDALKMVAGYRTFLPSFRKYGLKTSMPFCTQYGHPPLCQEEETMPNWKQNAKKYDVLIGSNQDETAFYVKTSQTGIYTYLPQRILNKIVRKTTASIYEKPAKAFAENLAAGGGNVYQFVIRSTLKSNNIGASHCVDLPLLFENKEAWQSAELLKDVPWEYIQENGKKLRALWAEFARSGSISEDSERPEILKLKKVKN | – | – | – | 90 ± 20 | 6.85 ± 0.53 | 77400 ± 11000
3 | ChryBHETase (Chryseobacterium sp. PET-29; DEL66-76/INS65GG) (protein, catalytic triad S194-E310-H379; V66-K76 barrier) MTTQQHKKIHTFHTSFGTIPALKGNGVIRAKSIRYARSQRFKKPEPLPYPEHDEIPDKTPVCPQNGGTDVEQFEPDESPQFLTITRPEHFNENEKLPVIVWIHGGSYEIGCGDLPTSDPSVWVKEQHIIVVSVSYRLGLFGFLGGSEERPANLGLYDMIAALQWIKQYIRDFGGDPENITLFGQSSGGDAIAHLMISEETENLFRHVIIHSAPLGFRINRQKMSHEFFLKTDILKDEPDALKMVAGYRTFLPSFRKYGLKTSMPFCTQYGHPPLCQEEETMPNWKQNAKKYDVLIGSNQDETAFYVKTSQTGIYTYLPQRILNKIVRKTTASIYEKPAKAFAENLAAGGGNVYQFVIRSTLKSNNIGASHCVDLPLLFENKEAWQSAELLKDVPWEYIQENGKKLRALWAEFARSGSISEDSERPEILKLKKVKN | – | – | – | 120 ± 30 | 12.9 ± 1.24 | 109000 ± 12900
4 | BsEst (Bacillus subtilis subsp. subtilis str. 168) (protein, catalytic triad S189-E310-H399; L410-K418 barrier) MTHQIVTTQYGKVKGTTENGVHKWKGIPYAKPPVGQWRFKAPEPPEVWEDVLDATAYGSICPQPSDLLSLSYTELPRQSEDCLYVNVFAPDTPSKNLPVMVWIHGGAFYLGAGSEPLYDGSKLAAQGEVIVVTLNYRLGPFGFLHLSSFNEAYSDNLGLLDQAAALKWVRENISAFGGDPDNVTVFGESAGGMSIAALLAMPAAKGLFQKAIMESGASRTMTKEQAASTSAAFLQVLGINEGQLDKLHTVSAEDLLKAADQLRIAEKENIFQLFFQPALDPKTLPEEPEKAIAEGAASGIPLLIGTTRDEGYLFFTPDSDVHSQETLDAALEYLLGKPLAEKVADLYPRSLESQIHMMTDLLFWRPAVAYASAQSHYAPVWMYRFDWHPKKPPYNKAFHALELPFVFGNLDGLERMAKAEITDEVKQLSHTIQSAWITFAKTGNPSTEAVNWPAYHEETRETLILDSEITIENDPESEKRQKLFPSKGE | 100 ± 20 | 37.7 ± 1.98 | 382000 ± 84500 | – | – | –

From PMC10344914, “Discovery and mechanism-guided engineering of BHET hydrolases for improved PET recycling and upcycling” (Nature Communications, 2023)
